# Results reported in US20240209076A1 (KODIAK SCIENCES, published 2024).
# Numbering of substitutions follows the chain as printed. In names and notes the source's numbering stands.
# B1: anti-IL-6 antibody, heavy chain S35Q, G66D / light chain M32L, M50D, N52S, M88Q (antibody, human IgG1, V domains shown)
# VH: EVQLVESGGGLVQPGGSLRLSCAASGFTFSPFAMQWVRQAPGKGLEWVAKISPGGSWTYYSDTVTDRFTFSLDTSKSTAYLQMNSLRAEDTAVYYCARQLWGYYALDIWGQGTLVTVSS
# VL: DIQLTQSPSSLSASVGDRVTITCSASISVSYLYWYQQKPGKAPKLLIYDDSSLASGVPSRFSGSGSGTDFTLTISSLQPEDFATYYCQQWSGYPYTFGQGTKVEIK
# notes: Human IgG1
# B2: anti-IL-6 antibody, heavy chain T63H, G66D / light chain M32L, M50D, N52S, M88Q (antibody, human IgG1, V domains shown)
# VH: B1 VH with Q35S, T63H
# VL: B1 VL
# notes: Human IgG1
# B3: anti-IL-6 antibody, heavy chain S35W, G66D / light chain M32L, M50D, N52S, M88Q (antibody, human IgG1, V domains shown)
# VH: B1 VH with Q35W
# VL: B1 VL
# notes: Human IgG1
# B4: anti-IL-6 antibody, heavy chain T63I, G66D / light chain M32L, M50D, N52S, M88Q (antibody, human IgG1, V domains shown)
# VH: B1 VH with Q35S, T63I
# VL: B1 VL
# notes: Human IgG1
# B5: anti-IL-6 antibody, heavy chain T65D, G66D / light chain M32L, M50D, N52S, M88Q (antibody, human IgG1, V domains shown)
# VH: B1 VH with Q35S, T65D
# VL: B1 VL
# notes: Human IgG1
# B6: anti-IL-6 antibody, heavy chain T65G, G66D / light chain M32L, M50D, N52S, M88Q (antibody, human IgG1, V domains shown)
# VH: B1 VH with Q35S, T65G
# VL: B1 VL
# notes: Human IgG1
# B7: anti-IL-6 antibody, heavy chain T63D, G66D / light chain M32L, M50D, N52S, M88Q (antibody, human IgG1, V domains shown)
# VH: B1 VH with Q35S, T63D
# VL: B1 VL
# notes: Human IgG1
# B8: anti-IL-6 antibody, heavy chain S35T, G66D / light chain M32L, M50D, N52S, M88Q (antibody, human IgG1, V domains shown)
# VH: B1 VH with Q35T
# VL: B1 VL
# notes: Human IgG1
# B9: anti-IL-6 antibody, heavy chain T63R, G66D / light chain M32L, M50D, N52S, M88Q (antibody, human IgG1, V domains shown)
# VH: B1 VH with Q35S, T63R
# VL: B1 VL
# notes: Human IgG1
# B10: anti-IL-6 antibody, heavy chain S35Y, G66D / light chain M32L, M50D, N52S, M88Q (antibody, human IgG1, V domains shown)
# VH: B1 VH with Q35Y
# VL: B1 VL
# notes: Human IgG1
# B11: anti-IL-6 antibody, heavy chain T65E, G66D / light chain M32L, M50D, N52S, M88Q (antibody, human IgG1, V domains shown)
# VH: B1 VH with Q35S, T65E
# VL: B1 VL
# notes: Human IgG1
# B12: anti-IL-6 antibody, heavy chain T63A, G66D / light chain M32L, M50D, N52S, M88Q (antibody, human IgG1, V domains shown)
# VH: B1 VH with Q35S, T63A
# VL: B1 VL
# notes: Human IgG1
# B13: anti-IL-6 antibody, heavy chain T65H, G66D / light chain M32L, M50D, N52S, M88Q (antibody, human IgG1, V domains shown)
# VH: B1 VH with Q35S, T65H
# VL: B1 VL
# notes: Human IgG1
# B14: anti-IL-6 antibody, heavy chain T63V, G66D / light chain M32L, M50D, N52S, M88Q (antibody, human IgG1, V domains shown)
# VH: B1 VH with Q35S, T63V
# VL: B1 VL
# notes: Human IgG1
# B15: anti-IL-6 antibody, heavy chain T65R, G66D / light chain M32L, M50D, N52S, M88Q (antibody, human IgG1, V domains shown)
# VH: B1 VH with Q35S, T65R
# VL: B1 VL
# notes: Human IgG1
# B16: anti-IL-6 antibody, heavy chain T65F, G66D / light chain M32L, M50D, N52S, M88Q (antibody, human IgG1, V domains shown)
# VH: B1 VH with Q35S, T65F
# VL: B1 VL
# notes: Human IgG1
# B17: anti-IL-6 antibody, heavy chain T63P, G66D / light chain M32L, M50D, N52S, M88Q (antibody, human IgG1, V domains shown)
# VH: B1 VH with Q35S, T63P
# VL: B1 VL
# notes: Human IgG1
# B18: anti-IL-6 antibody, heavy chain T65K, G66D / light chain M32L, M50D, N52S, M88Q (antibody, human IgG1, V domains shown)
# VH: B1 VH with Q35S, T65K
# VL: B1 VL
# notes: Human IgG1
# B19: anti-IL-6 antibody, heavy chain S35V, G66D / light chain M32L, M50D, N52S, M88Q (antibody, human IgG1, V domains shown)
# VH: B1 VH with Q35V
# VL: B1 VL
# notes: Human IgG1
# B20: anti-IL-6 antibody, heavy chain T65L, G66D / light chain M32L, M50D, N52S, M88Q (antibody, human IgG1, V domains shown)
# VH: B1 VH with Q35S, T65L
# VL: B1 VL
# notes: Human IgG1
# B21: anti-IL-6 antibody, heavy chain T63L, G66D / light chain M32L, M50D, N52S, M88Q (antibody, human IgG1, V domains shown)
# VH: B1 VH with Q35S, T63L
# VL: B1 VL
# notes: Human IgG1
# B22: anti-IL-6 antibody, heavy chain T63S, G66D / light chain M32L, M50D, N52S, M88Q (antibody, human IgG1, V domains shown)
# VH: B1 VH with Q35S, T63S
# VL: B1 VL
# notes: Human IgG1
# B23: anti-IL-6 antibody, heavy chain T63W, G66D / light chain M32L, M50D, N52S, M88Q (antibody, human IgG1, V domains shown)
# VH: B1 VH with Q35S, T63W
# VL: B1 VL
# notes: Human IgG1
# B24: anti-IL-6 antibody, heavy chain T65P, G66D / light chain M32L, M50D, N52S, M88Q (antibody, human IgG1, V domains shown)
# VH: B1 VH with Q35S, T65P
# VL: B1 VL
# notes: Human IgG1
# B25: anti-IL-6 antibody, heavy chain T65A, G66D / light chain M32L, M50D, N52S, M88Q (antibody, human IgG1, V domains shown)
# VH: B1 VH with Q35S, T65A
# VL: B1 VL
# notes: Human IgG1
# B26: anti-IL-6 antibody, heavy chain T63G, G66D / light chain M32L, M50D, N52S, M88Q (antibody, human IgG1, V domains shown)
# VH: B1 VH with Q35S, T63G
# VL: B1 VL
# notes: Human IgG1
# B27: anti-IL-6 antibody, heavy chain T63F, G66D / light chain M32L, M50D, N52S, M88Q (antibody, human IgG1, V domains shown)
# VH: B1 VH with Q35S, T63F
# VL: B1 VL
# notes: Human IgG1
# B28: anti-IL-6 antibody, heavy chain T63Y, G66D / light chain M32L, M50D, N52S, M88Q (antibody, human IgG1, V domains shown)
# VH: B1 VH with Q35S, T63Y
# VL: B1 VL
# notes: Human IgG1
# Target: human IL-6 (human, UniProt P05231 30-212)
# Sequence (P05231 30-212 limits assumed): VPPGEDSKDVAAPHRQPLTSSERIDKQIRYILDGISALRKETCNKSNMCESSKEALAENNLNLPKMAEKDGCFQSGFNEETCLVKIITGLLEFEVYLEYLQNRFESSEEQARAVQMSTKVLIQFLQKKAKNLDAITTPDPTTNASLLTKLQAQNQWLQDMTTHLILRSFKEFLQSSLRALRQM
# Assay: SPR (Biacore), supernatant antibody on Protein A chip, IL-6 flowed, 37 C
# Protocol: Antibodies were captured on a Protein A chip (GE) by injecting 1:20 cell supernatant dilutions at 10 μL/min for 60 seconds. […] The sensor chip was regenerated by a 60 seconds injection of 10 mM Glycine pH 1.7 at the flow rate of 50 μL/min. […] For this setup, 1 μg/mL of purified antibody was injected over a Protein A chip at 10 μL/min for 25 seconds. […] The sensor chip was regenerated by a 60 seconds injection of 10 mM Glycine pH 1.7 at flow rate of 50 μL/min. Data analysis for supernatant and purified samples were performed using BIAevaluation software (GE). All sensorgrams were double reference subtracted and fit using a 1:1 Langmuir binding model.
Kd,koff,kon,Binder
300 pM,0.000626 s⁻¹,2.09e+06 M⁻¹ s⁻¹,B1
280 pM,0.000481 s⁻¹,1.72e+06 M⁻¹ s⁻¹,B2
34600 pM,0.00591 s⁻¹,171000 M⁻¹ s⁻¹,B3
288 pM,0.000446 s⁻¹,1.55e+06 M⁻¹ s⁻¹,B4
465 pM,0.00048 s⁻¹,1.03e+06 M⁻¹ s⁻¹,B5
311 pM,0.000477 s⁻¹,1.53e+06 M⁻¹ s⁻¹,B6
249 pM,0.000413 s⁻¹,1.66e+06 M⁻¹ s⁻¹,B7
498 pM,0.000711 s⁻¹,1.43e+06 M⁻¹ s⁻¹,B8
273 pM,0.000526 s⁻¹,1.92e+06 M⁻¹ s⁻¹,B9
3430 pM,0.00404 s⁻¹,1.18e+06 M⁻¹ s⁻¹,B10
279 pM,0.000474 s⁻¹,1.7e+06 M⁻¹ s⁻¹,B11
268 pM,0.000458 s⁻¹,1.7e+06 M⁻¹ s⁻¹,B12
297 pM,0.000423 s⁻¹,1.43e+06 M⁻¹ s⁻¹,B13
274 pM,0.00043 s⁻¹,1.57e+06 M⁻¹ s⁻¹,B14
327 pM,0.000532 s⁻¹,1.63e+06 M⁻¹ s⁻¹,B15
291 pM,0.000391 s⁻¹,1.34e+06 M⁻¹ s⁻¹,B16
246 pM,0.000419 s⁻¹,1.7e+06 M⁻¹ s⁻¹,B17
356 pM,0.000579 s⁻¹,1.63e+06 M⁻¹ s⁻¹,B18
1330 pM,0.00137 s⁻¹,1.03e+06 M⁻¹ s⁻¹,B19
293 pM,0.000446 s⁻¹,1.53e+06 M⁻¹ s⁻¹,B20
283 pM,0.000454 s⁻¹,1.6e+06 M⁻¹ s⁻¹,B21
278 pM,0.000499 s⁻¹,1.8e+06 M⁻¹ s⁻¹,B22
286 pM,0.000449 s⁻¹,1.57e+06 M⁻¹ s⁻¹,B23
601 pM,0.00108 s⁻¹,1.79e+06 M⁻¹ s⁻¹,B24
239 pM,0.000542 s⁻¹,2.27e+06 M⁻¹ s⁻¹,B25
261 pM,0.00045 s⁻¹,1.73e+06 M⁻¹ s⁻¹,B26
274 pM,0.000459 s⁻¹,1.67e+06 M⁻¹ s⁻¹,B27
241 pM,0.000459 s⁻¹,1.91e+06 M⁻¹ s⁻¹,B28
